According to the supplement of paper PMC12042874:
± gives the uncertainty stated by the source.

Test: amyloid nucleation score (Sup35N fusion, yeast selection) (log enrichment); library NNK2; higher = more nucleation; inactive = no reads after selection
Summary of the method: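 Growth for 7 days at 30°C on medium lacking adenine and uracil followed a 24-hour induction with 100 μM copper sulfate of psi-negative yeast expressing peptides of 20 random codons fused to Sup35N. Input and output plasmid inserts were sequenced with Illumina, and sequences with under 100 input reads were excluded. Nucleation score is the DiMSum log enrichment of output over input reads, centred on the mode score of non-aggregating sequences.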

Row | Substance | amyloid nucleation score
1 | FFNMMSK | -1.72 ± 0.62
2 | FFQQRCYVVFAIMTSSGADD | 0.864 ± 0.12
3 | FFRGSYTRAWH | 0.967 ± 0.29
4 | FFSMRVIIMFERNSSVFAVQ | 4.1 ± 0.11
5 | FFSVHEDRREKYLSNNV | -2.15 ± 1.1
6 | FFTCFTYCDCHNPVMI | 3.28 ± 0.12
7 | FFTIVMRRSILFCIFLVIDA | -1.6 ± 0.49
8 | FFVTAPIGMFSLD | -2.17 ± 0.44
9 | FGADNGSPRSE | -0.354 ± 0.76
10 | FGCPIVPVISIGFPLYGVYY | 1.1 ± 0.3
11 | FGGIFCFSLYR | 3.52 ± 0.071
12 | FGKAF | -0.375 ± 0.79
13 | FGKNLTRMSDGGTVVPLRRN | 0.255 ± 0.8
14 | FGLRIKPGEKV | 0.783 ± 0.74
15 | FGNSDLNRAMLKRAKQMRSL | inactive
16 | FGRGSRLLLCAGFPLLNSYA | -0.356 ± 1.1
17 | FGSIFNSYVNEWRSLLCNID | -1.67 ± 0.39
18 | FGSVEVVRRIRSFWLFESPR | 3.58 ± 0.14
19 | FGTRHYLYSTSHHAHLGVDM | 1.83 ± 0.21
20 | FGVLYLDFCSIA | 3.93 ± 0.087
21 | FGVNS | -0.021 ± 0.63
22 | FGWAL | inactive
23 | FGWLALTKR | -1.16 ± 0.34
24 | FHGPKYMSILRGELICKAPG | inactive
25 | FHLLVVNFDTSLPLRQWKLE | 0.059 ± 0.3

Row | Substance | amyloid nucleation score
26 | FHVIGRR | 0.951 ± 0.58
27 | FIEGVRMHLRGM | 2.86 ± 0.094
28 | FIGNF | 0.636 ± 0.19
29 | FIHRDGYSFDQVGFMGACF | 0.092 ± 1.1
30 | FIKMSNSWAYDAEFSVPLHM | 3.84 ± 0.047
31 | FIKRAHVERFSLPKTPWSVD | -1.3 ± 1
32 | FILPRLIFAGQLSCGFARGV | -1.17 ± 0.76
33 | FILRGDNLC | -1.01 ± 1
34 | FIMYFYKRTNYNFIKYHASA | 1.52 ± 0.15
35 | FINWHGMHSL | 0.89 ± 0.16
36 | FIQVSHCYAKMPYTTVTPGA | -0.191 ± 0.79
37 | FIRNYWSVYGRWSANIFDDL | 0.48 ± 0.45
38 | FIRSSIVWCC | 6.04 ± 0.077
39 | FIVMEVVEERCMSIVVESNQ | -0.804 ± 0.61
40 | FIYIVAFPIREISGLSNL | inactive
41 | FIYSHYWWLWLYHTATVIPH | -1.45 ± 0.62
42 | FKAHIR | inactive
43 | FKAILGG | inactive
44 | FKCNIYYSFRYGSI | 7.18 ± 0.026
45 | FKFVGNSQAQVWNMCESNDS | -0.369 ± 0.64
46 | FKFVYNVKCPYWWTLSFMEV | 0.75 ± 0.47
47 | FKKTLTGCYGGGRGAMNNGK | inactive
48 | FKNCDGRNIRSSHNPFNMVR | -0.857 ± 0.34
49 | FKPYF | inactive
50 | FKRPDSKIVCDVNVKGALKE | inactive

Row | Substance | amyloid nucleation score
51 | FKSCLAGVGLFILMRFHNIA | inactive
52 | FKVTTFYHGLSSMKDVASSY | -0.95 ± 0.45
53 | FLACQYNCLVDSMG | 3.26 ± 0.051
54 | FLCTNGGPLALSNGWVTSGE | 0.274 ± 0.62
55 | FLGEVCQWDRMIVARVKATR | -0.063 ± 0.29
56 | FLICGHCWGPNTYYNTSVLM | 7.8 ± 0.061
57 | FLKGPTEECQLRPSLRTNLQ | 0.069 ± 0.23
58 | FLKTKSFMVKMTGVNNQVFL | 5.96 ± 0.071
59 | FLNNDRYRR | -1.67 ± 0.78
60 | FLPYVIRRGWSCCPSGKWRN | 0.03 ± 0.55
61 | FLRENLCTDVGLTHVCCTYT | inactive
62 | FLRNPPYESTTQGGRPKGAH | 0.134 ± 0.51
63 | FLSKFSCEVKTPDLMSCGKG | 4.04 ± 0.096
64 | FLVFHPRDSMNI | 1.49 ± 0.44
65 | FLVHCNILALNTCHLVYL | 5.07 ± 0.089
66 | FLVLFASVPKEVPLAYRVVK | -0.898 ± 0.61
67 | FMDRFLSWFCHE | 1.26 ± 0.37
68 | FMELLYHSASYSARFTRKSR | 2.69 ± 0.098
69 | FMIFDVGNSGKYLLSVS | -0.774 ± 0.27
70 | FMLSVPNVDRFVRRMLGTPE | 1.05 ± 0.42
71 | FMLVV | inactive
72 | FMLYMRLCKFYYFFGS | -1.29 ± 0.41
73 | FMRFARMCS | 0.256 ± 0.16
74 | FMTNGFFVSLWFTCGDSVLS | 5.68 ± 0.078
75 | FNCGASKNSLKNEGKW | -0.925 ± 0.63

Row | Substance | amyloid nucleation score
76 | FNIRSFICV | inactive
77 | FNLADSTSSVTP | 0.048 ± 0.65
78 | FNLLEVTRPPMRMMGMM | 2.3 ± 0.076
79 | FPENDWL | -0.552 ± 0.44
80 | FPFFLHLFNYLLVRCLTVGF | inactive
81 | FPFSGFVDFSVLVLRYKGSP | 1.82 ± 0.16
82 | FPLRCFTIFSMRASNF | 0.615 ± 0.66
83 | FQIRT | inactive
84 | FQMMCSIDFNKCLPWLFS | inactive
85 | FQNITVYSFRATGVTGQRSC | -0.447 ± 0.5
86 | FQRFVIK | -2.12 ± 0.44
87 | FRFVEFNNSGNVCPLIFTLS | -0.266 ± 0.65
88 | FRILFGFRCNLRGSSQVLIG | inactive
89 | FRLILWPIDCAINTNRRCNR | 4.38 ± 0.051
90 | FRLYFHPGVNGAET | -0.356 ± 0.64
91 | FRNTWFCFLLKLLTS | -0.818 ± 0.42
92 | FRRCGPDGGIWLDLAACKKI | 0.1 ± 0.38
93 | FRVIYDRHTGILRSHERAKG | -0.551 ± 0.35
94 | FRVPF | 2.03 ± 0.24
95 | FRVTIMVIQNSPTVSPGLAG | 4.31 ± 0.08
96 | FRWGFVSPDRSIGDVFLQLC | -0.137 ± 1.1
97 | FRYAVPMCTFFADYFMSDQS | inactive
98 | FRYHRTSCQSHSVWRTFTSF | -0.884 ± 0.39
99 | FRYRIYGGHLTINRIIYSLV | -0.702 ± 1.1
100 | FSCSLQRIGEMSRDKSYTPA | 0.503 ± 0.66

Row | Substance | amyloid nucleation score
101 | FSCSSDCLIFVSHRNRVLLN | -0.596 ± 0.37
102 | FSFSEHRL | 0.045 ± 0.79
103 | FSGFSLRSPTTRGGVCGKTV | 0.575 ± 0.47
104 | FSGSIVIAGGIVSMRDPGLR | -0.596 ± 0.79
105 | FSHYLSRRGRPYHANCKEAL | -0.922 ± 0.39
106 | FSIGCVMGLAINLSGFALWV | 1.84 ± 0.14
107 | FSIYYRGPRQVSTYRDLIPV | -0.429 ± 0.37
108 | FSLCANCNIMMPRSFLSYT | 5.24 ± 0.078
109 | FSLLD | -0.264 ± 0.45
110 | FSRICKAMYQKSGYKINGIN | -0.283 ± 1
111 | FSRMPLMDESFWFTCSICVM | 2.64 ± 0.068
112 | FSRYGRMRFLHCSTFSLMPI | -0.07 ± 0.76
113 | FSSIDWLCRRCSQGNRAGID | 0.371 ± 0.66
114 | FSSSWKGRFVNNSRVVGKSR | -0.367 ± 0.43
115 | FSTQGTPSSSLDWLNRLTVW | 0.102 ± 0.36
116 | FSVCHVQDCSSAGRMYYLRL | 3.98 ± 0.055
117 | FSVIICVTALVWACCCTRIV | 1.09 ± 0.36
118 | FSVLWEMDRLVHG | 0.95 ± 0.29
119 | FSWLSPMWYMLNDRKLYGNP | 0.779 ± 0.42
120 | FSWSYDVDIT | inactive
121 | FSYPGWFGFRS | inactive
122 | FSYQSHY | 0.466 ± 0.23
123 | FSYRCFINTSQFYSAIKIFL | 0.691 ± 0.14
124 | FTIHWRVGCTQWLEAVIGYM | 4.07 ± 0.1
125 | FTLGANLT | -0.855 ± 0.76

Row | Substance | amyloid nucleation score
126 | FTLKINVPETGTIVLPELGS | 0.235 ± 0.48
127 | FTLWFQTLARGGMLARNLFK | -1.17 ± 0.75
128 | FTRTWLCIHAEYARCLGTCV | 5.05 ± 0.053
129 | FTVKGTITVYFMVAV | 2.17 ± 0.11
130 | FVEMYGLWPSFGVKRKVLKV | -0.904 ± 0.53
131 | FVESVSEPALCIFKVSGYCS | -0.685 ± 0.79
132 | FVINSCENVARTHRVCQLAM | -0.115 ± 0.37
133 | FVIVVFRPLGKWQRLFFCNC | 0.811 ± 0.21
134 | FVLCLDLHDESQERWETIRR | 0.925 ± 0.67
135 | FVLHIMRLSCYCE | -0.29 ± 0.45
136 | FVMNGPLWMTLANMSMNHNL | 4.21 ± 0.06
137 | FVNIFIIHADYVGHRPAELR | 9.092 ± 0.081
138 | FVRHTHFG | -1.21 ± 1.1
139 | FVTRGSVAMTQVGYNTVIRM | 5.64 ± 0.061
140 | FVTTENLVNSLVLNMARAKK | 3.44 ± 0.097
141 | FVVQFMGADHAFKERFGGH | 1.87 ± 0.2
142 | FWCGCNFVVHLYVTSSSLKP | 8.006 ± 0.065
143 | FWIDTYGGTNFKGCICIITG | 4.39 ± 0.11
144 | FWLSTWSFNVVYPDGEAQKS | -0.303 ± 0.48
145 | FWLSYTDLWNNY | inactive
146 | FWRAFMLHWGNFLLMRALHE | inactive
147 | FWRKVCVDDRTT | -0.121 ± 0.43
148 | FWRLWIVCIPLVYLRR | 0.131 ± 1
149 | FWSIMWLVCPGAMWCNT | 1.84 ± 0.28
150 | FYAIGFLIGGLHFWDWHIWF | -0.189 ± 0.64

Row | Substance | amyloid nucleation score
151 | FYECNMSQVRDFPLHMYRYS | inactive
152 | FYIIRD | -0.866 ± 0.76
153 | FYITRLVHFNLIYEGLGFLR | 1.05 ± 0.23
154 | FYKGYACHITAQYNLCVDNA | -0.146 ± 1
155 | FYLGYQTRCYSLIGDIE | 3.51 ± 0.05
156 | FYLRFNTFVSDTNCLTDWLA | 3.46 ± 0.087
157 | FYQFLNSNGKYTGVYGAAPR | -1.01 ± 0.41
158 | FYRNLLTFFYGVSFN | -0.807 ± 1
159 | FYSFLFFHPIGMFARVYKCF | inactive
160 | FYSLLCTFPSLLTDLLLVHR | -0.66 ± 0.26
161 | FYSTLFHFPYLVDQMYGPTI | -1.29 ± 1
162 | FYVSAFMHIKVLYPVNNRLG | 3.62 ± 0.11
163 | FYWNMYGDFDFDPSAPGTNG | inactive
164 | GADGCCHNMDCGFLNINWTN | 8.959 ± 0.049
165 | GADGTSVLDFCDSVTV | -1.32 ± 0.44
166 | GAGPEEPDSLDEVIVT | 0.202 ± 0.3
167 | GALGTRRFSGMCLVCESRSG | 5.28 ± 0.097
168 | GAMTSMDVCL | -0.062 ± 0.65
169 | GANMLETV | -0.085 ± 0.47
170 | GATCTSCDRCIALVSGGRKR | 0.313 ± 0.44
